Reference: patent publication US20250206797A1 (BEIJING TUO JIE BIOPHARMACEUTICAL, published 2025)
Changes are numbered by the printed parent chain.

B1: fusion protein 6 (insulin analog 5 + L2 + IgG2 Fc1) (Fc fusion)
chain: FVNQHLCGEHLVEALYLVCGERGFHYGGGGGSGGGGGIVEQCCESICSLEQLENYCGGGGGQGGGGQGGGGQGGGGGECPPCPAPPVAGPSVFLFPPKPKDTLMISRTPEVTCVVVDVSHEDPEVQFNWYVDGVEVHNAKTKPREEQFNSTFRVVSVLTVVHQDWLNGKEYKCKVSNKGLPAPIEKTISKTKGQPREPQVYTLPPSREEMTKNQVSLTCLVKGFYPSDIAVEWESNGQPENNYKTTPPMLDSDGSFFLYSKLTVDKSRWQQGNVFSCSVMHEALHNHYTQKSLSLSPG
B2: fusion protein 5 (insulin analog 1 + L2 + IgG2 Fc1) (Fc fusion)
chain: FVNQHLCGEHLVEALYLVCGERGFHYGGGGGGSGGGGGIVEQCCESICSLEQLENYCGGGGGQGGGGQGGGGQGGGGQGGGGQECPPCPAPPVAGPSVFLFPPKPKDTLMISRTPEVTCVVVDVSHEDPEVQFNWYVDGVEVHNAKTKPREEQFNSTFRVVSVLTVVHQDWLNGKEYKCKVSNKGLPAPIEKTISKTKGQPREPQVYTLPPSREEMTKNQVSLTCLVKGFYPSDIAVEWESNGQPENNYKTTPPMLDSDGSFFLYSKLTVDKSRWQQGNVFSCSVMHEALHNHYTQKSLSLSPG
B3: fusion protein 7 (insulin analog 1 + L2 + IgG2 Fc1) (Fc fusion)
chain: FVNQHLCGEHLVEALYLVCGERGFHYGGGGGGSGGGGGIVEQCCESICSLEQLENYCGPGPQPGPQPGPQPGPQPGPQPGPQPGPQPGPQECPPCPAPPVAGPSVFLFPPKPKDTLMISRTPEVTCVVVDVSHEDPEVQFNWYVDGVEVHNAKTKPREEQFNSTFRVVSVLTVVHQDWLNGKEYKCKVSNKGLPAPIEKTISKTKGQPREPQVYTLPPSREEMTKNQVSLTCLVKGFYPSDIAVEWESNGQPENNYKTTPPMLDSDGSFFLYSKLTVDKSRWQQGNVFSCSVMHEALHNHYTQKSLSLSPG
B4: LY3209590 (Fc fusion)
chain: FVNQHLCGSHLVEALELVCGERGFHYGGGGGGSGGGGGIVEQCCTSTCSLDQLENYCGGGGGQGGGGQGGGGQGGGGGECPPCPAPPVAGPSVFLFPPKPKDTLMISRTPEVTCVVVDVSHEDPEVQFNWYVDGVEVHNAKTKPREEQFNSTFRVVSVLTVVHQDWLNGKEYKCKVSNKGLPAPIEKTISKTKGQPREPQVYTLPPSREEMTKNQVSLTCLVKGFYPSDIAVEWESNGQPENNYKTTPPMLDSDGSFFLYSKLTVDKSRWQQGNVFSCSVMHEALHNHYTQKSLSLSPG
B5: fusion protein 9 (insulin analog 6 + L2 + IgG2 Fc1) (Fc fusion)
chain: B4 chain with S9E, E16Y, T45E, T47I, D51E, G58N, G59H
B6: fusion protein 2 (insulin analog 2 + L2 + IgG2 Fc1) (Fc fusion)
chain: B4 chain with E16Y, T45H, T47I, D51E
B7: fusion protein 1 (insulin analog 1 + L2 + IgG2 Fc1) (Fc fusion)
chain: B4 chain with S9E, E16Y, T45E, T47I, D51E
B8: fusion protein 4 (insulin analog 4 + L2 + IgG2 Fc1) (Fc fusion)
chain: B4 chain with N3K, S9E, E16Y, T45E, T47I, D51E
B9: fusion protein 8 (insulin analog 1 + L2 + IgG2 Fc1) (Fc fusion)
chain: B4 chain with S9E, E16Y, T45E, T47I, D51E, Q63A, Q68A, Q73A
B10: fusion protein 3 (insulin analog 3 + L2 + IgG2 Fc1) (Fc fusion)
chain: B4 chain with E16H, T47I, D51E, G58N

Molecular target: insulin receptor of C2C12 mouse myoblasts (mouse, UniProt P15208 28-1372)
Sequence (P15208 28-1372): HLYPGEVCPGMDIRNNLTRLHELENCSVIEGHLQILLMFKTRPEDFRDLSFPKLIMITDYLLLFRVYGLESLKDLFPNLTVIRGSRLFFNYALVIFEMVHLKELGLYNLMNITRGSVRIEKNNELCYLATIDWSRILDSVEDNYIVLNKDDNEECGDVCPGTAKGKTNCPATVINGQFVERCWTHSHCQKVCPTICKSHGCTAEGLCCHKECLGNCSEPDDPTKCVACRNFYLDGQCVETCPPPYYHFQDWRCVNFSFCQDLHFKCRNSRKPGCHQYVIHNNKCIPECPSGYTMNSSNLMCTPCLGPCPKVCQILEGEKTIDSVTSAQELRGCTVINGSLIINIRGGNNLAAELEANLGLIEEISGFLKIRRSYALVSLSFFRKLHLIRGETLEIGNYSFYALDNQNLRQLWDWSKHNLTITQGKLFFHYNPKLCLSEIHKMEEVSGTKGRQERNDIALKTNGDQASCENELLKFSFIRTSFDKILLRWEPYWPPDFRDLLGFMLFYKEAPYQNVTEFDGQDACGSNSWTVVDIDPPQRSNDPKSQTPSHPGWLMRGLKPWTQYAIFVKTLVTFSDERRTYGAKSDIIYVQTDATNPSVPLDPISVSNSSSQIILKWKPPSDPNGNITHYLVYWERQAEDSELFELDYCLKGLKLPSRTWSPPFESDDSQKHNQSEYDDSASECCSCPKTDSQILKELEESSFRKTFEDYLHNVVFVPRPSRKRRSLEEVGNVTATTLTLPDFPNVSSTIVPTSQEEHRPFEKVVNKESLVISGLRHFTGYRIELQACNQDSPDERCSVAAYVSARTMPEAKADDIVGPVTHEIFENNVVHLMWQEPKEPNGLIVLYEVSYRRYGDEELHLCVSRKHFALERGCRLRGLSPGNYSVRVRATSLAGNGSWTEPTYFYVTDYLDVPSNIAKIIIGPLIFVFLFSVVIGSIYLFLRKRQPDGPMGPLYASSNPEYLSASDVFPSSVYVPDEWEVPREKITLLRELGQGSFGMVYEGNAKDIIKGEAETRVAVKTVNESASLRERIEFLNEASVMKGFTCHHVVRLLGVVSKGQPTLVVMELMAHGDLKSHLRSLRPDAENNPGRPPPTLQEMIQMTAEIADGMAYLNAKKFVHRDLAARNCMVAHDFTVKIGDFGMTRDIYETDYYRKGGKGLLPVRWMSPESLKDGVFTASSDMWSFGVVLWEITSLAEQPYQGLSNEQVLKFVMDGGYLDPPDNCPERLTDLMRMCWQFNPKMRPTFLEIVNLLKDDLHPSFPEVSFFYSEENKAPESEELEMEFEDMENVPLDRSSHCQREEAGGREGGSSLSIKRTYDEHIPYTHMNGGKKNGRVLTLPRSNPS
Assay: cell-based or functional assay

Q: For B1, which “AKT phosphorylation activity (EC50) in C2C12 mouse myoblasts (HTRF phospho-S473)” value (“AKT phosphorylation activity (EC50)” for short) is on record?
A: 0.456 µM

Q: Which “AKT phosphorylation activity (EC50)” value does the source give for B2 here?
A: 0.32 µM

Q: How did the “AKT phosphorylation activity (EC50)” value turn out when B3 was run?
A: 0.28 µM

Q: For B4, which “AKT phosphorylation activity (EC50)” value is on record?
A: 0.194 µM

Q: With B5 as the binder, how does the “AKT phosphorylation activity (EC50)” value read?
A: 0.133 µM

Q: B6 was tested. Which “AKT phosphorylation activity (EC50)” value did it give?
A: 0.0905 µM

Q: How did the “AKT phosphorylation activity (EC50)” value turn out when B7 was run?
A: 0.49 µM

Q: Which “AKT phosphorylation activity (EC50)” value does the source give for B8 here?
A: 0.565 µM

Q: How did the “AKT phosphorylation activity (EC50)” value turn out when B9 was run?
A: 0.544 µM

Q: How did the “AKT phosphorylation activity (EC50)” value turn out when B10 was run?
A: 0.0286 µM

Molecular target: T1, IGF-IR (human, UniProt P08069 31-1367)
Assay: cell-based or functional assay

Q: For B4, which “Activity in promoting MCF-7 proliferation (EC50), CellTiter-Glo” value is on record?
A: 0.0312 µM

Q: B7 was tested. Which “Activity in promoting MCF-7 proliferation (EC50), CellTiter-Glo” value did it give?
A: 0.28 µM

Molecular target: T1, IGF-IR
Assay: cell-based or functional assay
Remark: another data set of the same source

Q: How did the “EC50 for the activity in promoting MCF-7 proliferation, relative to LY3209590” value turn out when B6 was run?
A: ~2 fold of the EC50 of LY3209590
